Data taken from paper doi:10.1101/2025.02.01.633781.

Molecular target: FUS (recombinant, produced in-house) (UniProt P35637 1-526)
Assay: EMSA

FUS (recombinant, produced in-house), sequence (P35637 whole entry): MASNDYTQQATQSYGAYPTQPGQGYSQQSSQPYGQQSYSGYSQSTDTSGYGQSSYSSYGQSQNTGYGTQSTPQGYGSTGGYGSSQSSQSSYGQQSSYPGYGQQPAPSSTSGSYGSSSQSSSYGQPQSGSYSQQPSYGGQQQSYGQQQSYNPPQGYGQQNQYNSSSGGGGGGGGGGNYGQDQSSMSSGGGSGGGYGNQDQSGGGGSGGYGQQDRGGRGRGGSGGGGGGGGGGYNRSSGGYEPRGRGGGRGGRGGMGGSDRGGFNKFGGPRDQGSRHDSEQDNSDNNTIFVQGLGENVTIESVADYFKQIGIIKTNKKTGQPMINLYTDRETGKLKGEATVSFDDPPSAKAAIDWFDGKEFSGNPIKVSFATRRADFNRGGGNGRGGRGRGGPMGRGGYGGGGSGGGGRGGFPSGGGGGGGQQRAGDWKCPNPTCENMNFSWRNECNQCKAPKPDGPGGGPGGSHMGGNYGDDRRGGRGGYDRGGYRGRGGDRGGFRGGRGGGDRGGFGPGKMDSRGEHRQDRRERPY

GGACUCGGACUUGGACUCUGGACUUUGGAC (ssRNA) [4xDRACH]: binds.
